Measurements: patent US6420522 (VERTEX PHARMACEUTICALS, dated 2002)
Read-outs that look alike come from different tables or passages of the source. One block for each molecule: values may come before it. Starred links: 1 amine or outer side, 2 acyl side, 3 side chain; linkers in the order of their positions; H or OH if unused. Non-standard residues stand in square brackets, D forms with d. No end group written: not given here. *: point of attachment. Asp‑al = Asp with the carboxyl reduced to aldehyde (3-amino-4-oxobutanoic acid), O=C[C@H](CC(=O)[*:3])N[*:1]; benzoxazol‑2‑yl ketone = Asp carboxyl replaced by 2-benzoxazolyl ketone, c1ccc2oc(*)nc2c1; Pro(4R-allyloxy) = 4(R)-allyloxyproline, C=CCO[C@@H]1C[C@@H](C(=O)[*:2])N([*:1])C1; X3 = (2,6-dichlorophenylmethyloxy)methyl ketone, Clc1cccc(Cl)c1COC*; X1 = 7‑methoxybenzoxazol‑2‑yl ketone, COc1cccc2nc(*)oc12; X2 = 4‑methoxybenzoxazol‑2‑yl ketone, COc1cccc2oc(*)nc12; X4 = (2-chlorobenzyloxy)methyl ketone, Clc1ccccc1COC*; Pro(4-benzyloxy) = 4-benzyloxyproline; Pro(4-phenoxy) = 4-phenoxyproline; Hyp = O=C(O)[C@@H]1C[C@@H](O)CN1; Cbz = O=C(OCc1ccccc1)*

Tests used:
[1] = target: interleukin-1β converting enzyme (ICE), as used in the enzyme assays (UniProt P29466); assay: ICE enzyme inhibition, UV-visible substrate Suc-YVAD-pNA
[2] = target: interleukin-1β converting enzyme (ICE), as used in the enzyme assays (UniProt P29466); assay: ICE enzyme inhibition, fluorescent substrate Ac-YVAD-AMC
[3] = target: T1, interleukin-1β converting enzyme (ICE) in human peripheral blood mononuclear cells (human, UniProt P29466 1-404, limits assumed); assay: cell-based or functional assay
T1 sequence (looked up): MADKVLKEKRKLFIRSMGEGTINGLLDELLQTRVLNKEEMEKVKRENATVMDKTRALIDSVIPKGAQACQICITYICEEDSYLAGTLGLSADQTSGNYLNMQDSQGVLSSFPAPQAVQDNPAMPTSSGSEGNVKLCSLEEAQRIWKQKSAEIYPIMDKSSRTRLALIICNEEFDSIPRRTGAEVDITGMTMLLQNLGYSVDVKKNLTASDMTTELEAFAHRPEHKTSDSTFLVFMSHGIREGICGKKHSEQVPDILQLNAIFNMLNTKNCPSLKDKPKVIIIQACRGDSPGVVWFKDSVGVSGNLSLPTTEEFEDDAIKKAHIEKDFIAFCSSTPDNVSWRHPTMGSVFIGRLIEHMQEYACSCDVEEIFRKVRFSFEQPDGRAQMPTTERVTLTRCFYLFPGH

[4] = target: T2, interleukin-1β converting enzyme (ICE), as used in the enzyme assays (UniProt P29466 120-297; P29466 317-404, limits assumed); assay: ICE enzyme inhibition, UV-visible substrate Suc-YVAD-pNA
T2 construct: also called IL-1β Converting Enzyme
T2 sequence (looked up) 1: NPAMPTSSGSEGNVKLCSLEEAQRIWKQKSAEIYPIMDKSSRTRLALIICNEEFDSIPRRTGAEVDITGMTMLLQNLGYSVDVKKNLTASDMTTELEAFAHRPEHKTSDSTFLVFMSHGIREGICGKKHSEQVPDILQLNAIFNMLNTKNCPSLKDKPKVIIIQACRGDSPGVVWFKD
T2 sequence (looked up) 2: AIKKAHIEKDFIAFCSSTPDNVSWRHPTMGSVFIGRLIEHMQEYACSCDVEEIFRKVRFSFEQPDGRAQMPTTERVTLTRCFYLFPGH
Protocol: Synthesis of analogous substrates is described by L. A. Reiter (Int. J. Peptide Protein Res. 43, 87–96 (1994)). […] Buffer, ICE and DMSO (if inhibitor is present) are added to the wells in the order listed. The components are left to incubate at room temperature for 15 minutes starting at the time that all components are present in all wells. The microtiter plate reader is set to incubate at 37° C. After the 15 minute incubation, substrate is added directly to the wells and the reaction is monitored by following the release of the chromophore (pNA) at 405–603 nm at 37° C. for 20 minutes. A linear fit of the data is performed and the rate is calculated in mOD/min. DMSO is only present during experiments involving inhibitors, buffer is used to make up the volume to 100 µl in the other experiments.

[5] = target: T2, interleukin-1β converting enzyme (ICE), …; assay: ICE enzyme inhibition, fluorescent substrate Ac-YVAD-AMC
Protocol: This assay is run essentially according to Thornberry et al. (Nature 356: 768–774 (1992)), using substrate 17 referenced in that article. […] The following components are mixed:
Buffer and ICE are added to the wells. The components are left to incubate at 37° C for 15 minutes in a temperature-controlled wellplate. […] A linear fit of the data for each well is performed and a rate is determined in fluorescence units per second.

[6] = target: T1, interleukin-1β converting enzyme (ICE) …; assay: cell-based or functional assay; remark: listed apart in the source
[7] = target: T1, interleukin-1β converting enzyme (ICE) …; assay: cell-based or functional assay; remark: listed apart in the source

Ki [1]: 14 nM
Molecule: N-[2-(N-Acetyl-tyrosinyl-valinyl)-(S)-1,2,3,4-tetrahydroisoquinoline-3-carbonyl]-3-amino-oxobutanoic acid (peptide)

Ki [1]: 23 nM
Ki [2]: 4.7 nM
Molecule: N-(N-Acetyl-tyrosinyl-valinyl-pipecolyl)-3-amino-4-oxobutanoic acid (peptide)

Cell IC50 (µM): inhibitor concentration at which 50% of mature IL-1β is detected in the supernatant [3]: 3.3 µM
Ki [1]: 100 nM
B1: (R,S) N-[N-(Phenylmethyloxy)carbonyl-valinyl-alaninyl]-3-amino-5-(2,6-dichlorophenylmethyloxy)-4-oxo-pentanoic acid (peptide)
peptide: Cbz-Val-Ala-Asp-X3
modifications: also: Asp-derived residue (R,S)

Ki [4]: 12 nM
Ki [5]: 3.9 nM
B2: N-[N-Acetyl-tyrosinyl-valinyl-(4-hydroxyprolinyl)]-3-amino-4-oxobutanoic acid (peptide)
peptide: Ac-YV[Hyp][Asp‑al]
modifications: not fully specified (C-terminus)

Cell IC50 (µM): inhibitor concentration at which 50% of mature IL-1β is detected in the supernatant [6]: 4 µM
Ki [1]: 175 nM
B3: N-Acetyl-(S)-valinyl-(4-(S)-phenoxy)prolinyl-3(S)-amino-4-(7-methoxybenzoxazol-2-yl)-4-oxo-butanoic acid (peptide)
peptide: Ac-Val-Pro-Asp-X1
modifications: not fully specified (residues 2, 3)

Ki [4]: 7.2 nM
Ki [5]: 5.2 nM
Cell IC50 (µM): inhibitor concentration at which 50% of mature IL-1β is detected in the supernatant [7]: 2.6 µM
B4: N-(N-Acetyl-tyrosinyl-valinyl-(4-phenoxyprolinyl))-3-amino-4-oxobutanoic acid (peptide)
peptide: Ac-YV[Pro(4-phenoxy)][Asp‑al]
modifications: not fully specified (C-terminus)

Ki [4]: 19 nM
Cell IC50 (µM): inhibitor concentration at which 50% of mature IL-1β is detected in the supernatant [3]: 0.5 µM
B5: (R,S) N-[N-(Acetyl)tyrosinyl-valinyl-alaninyl]-3-amino-5-(2,6-dichlorophenylmethyloxy)-4-oxo-pentanoic acid (peptide)
peptide: Ac-YVAD-X3
modifications: also: Asp-derived residue (R,S)
notes: also called 84b

Ki [4]: 18 nM
B6: N-Acetyl-(S)-tyrosinyl-(S)-valinyl-(S)-alaninyl-3(S)-amino-5-(2-chlorobenzyloxy)-4-oxo-pentanoic acid (peptide)
peptide: Ac-YVAD-X4
SMILES: CC(=O)N[C@@H](Cc1ccc(O)cc1)C(=O)N[C@H](C(=O)N[C@@H](C)C(=O)N[C@@H](CC(=O)O)C(=O)COCc1ccccc1Cl)C(C)C
notes: also called 89

Ki [4]: 11 nM
Cell IC50 (µM): inhibitor concentration at which 50% of mature IL-1β is detected in the supernatant [3]: 0.735 µM
B7: (3S) N-(N-Acetyl-(S)-tyrosinyl-(S)-valinyl-(S)-alaninyl)-3-amino-4-(2-(7-methoxybenzoxazolyl))-4-oxobutanoate (peptide)
peptide: Ac-YVAD-X1
SMILES: COc1cccc2nc(C(=O)[C@H](CC(=O)O)NC(=O)[C@H](C)NC(=O)[C@@H](NC(=O)[C@H](Cc3ccc(O)cc3)NC(C)=O)C(C)C)oc12
notes: also called 69a

Ki [4]: 50 nM
Cell IC50 (µM): inhibitor concentration at which 50% of mature IL-1β is detected in the supernatant [3]: 0.745 µM
B8: (3S) t-Butyl N-(N-acetyl-(S)-tyrosinyl-(S)-valinyl-(S)-alaninyl)-3-amino-4-(2-(4-methoxybenzoxazolyl))-4-oxobutanoate (peptide)
peptide: Ac-YVAD-X2
SMILES: COc1cccc2oc(C(=O)[C@H](CC(=O)O)NC(=O)[C@H](C)NC(=O)[C@@H](NC(=O)[C@H](Cc3ccc(O)cc3)NC(C)=O)C(C)C)nc12
notes: The printed name begins with 't-Butyl', but the compound was made by the method for the acid 69a and its printed formula C31H37N5O10 is that of the free acid; also called 69b

Ki [4]: 10 nM
Ki [5]: 2 nM
B9: N-[N-Acetyl-tyrosinyl-valinyl-(4-benzyloxy)prolinyl]-3-amino-4-oxobutanoic acid (peptide)
peptide: Ac-YV[Pro(4-benzyloxy)][Asp‑al]
modifications: not fully specified (C-terminus)

Ki [4]: 3.5 nM
Cell IC50 (µM): inhibitor concentration at which 50% of mature IL-1β is detected in the supernatant [6]: 9.8 µM
B10: N-(N-Acetyl-tyrosinyl-valinyl-(4(R)-allyloxy prolinyl))-3(S)-amino-4-oxobutanoic acid (peptide)
peptide: Ac-YV[Pro(4R-allyloxy)][Asp‑al]
modifications: not fully specified (C-terminus)
notes: also called 85

Cell IC50 (µM): inhibitor concentration at which 50% of mature IL-1β is detected in the supernatant [3]: 4.1 µM
Ki [1]: 850 nM
B11: (3S) N-(N-Benzyloxycarbonyl-(S)-valinyl-(S)-alaninyl)-3-amino-4-(2-benzoxazolyl)-4-oxobutanoate (peptide)
peptide: Cbz-Val-Ala-Asp-{benzoxazol‑2‑yl ketone}
SMILES: CC(C)[C@H](NC(=O)OCc1ccccc1)C(=O)N[C@@H](C)C(=O)N[C@@H](CC(=O)O)C(=O)c1nc2ccccc2o1
